The values below come from US20250243277A1 (AVACTA LIFE SCIENCES, published 2025).

The experiment addresses T1, human PD-L1-Fc (R&D Systems) (human, UniProt Q9NZQ7 19-239).
T1 construct: Bought from R&D Systems; Biotinylated in-house for the phage selection; also called huPD-L1-Fc; human PD-L1-Fc antigen; not shown: Fc part of the bought fusion
The experiment in a line: soluble Affimer ELISA. Background: In an ELISA, binding on a coated surface is turned into a signal by an enzyme label.

T1 sequence (Q9NZQ7 19-239 limits assumed): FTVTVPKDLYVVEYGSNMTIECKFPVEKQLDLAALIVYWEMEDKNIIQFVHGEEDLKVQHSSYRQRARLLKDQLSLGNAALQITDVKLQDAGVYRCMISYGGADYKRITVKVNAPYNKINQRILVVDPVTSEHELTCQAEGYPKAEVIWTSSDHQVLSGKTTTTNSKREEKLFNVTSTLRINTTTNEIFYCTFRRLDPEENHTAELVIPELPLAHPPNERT

B1: Clone 182 (designed binder)
chain: MIPGGLSEAKPATPEIQEIVDKVKPQLEEKTGETYGKLEAVQYKTQVVLKTNPSPSDGTNYYIKVRAGDNKYMHLKVFKSLAVFRQRLGVEDLVLTGYQVDKNKDDELTGF
notes: His-tagged
Turning to B1, the binding result is listed as “binds”.

B2: Clone 49 (designed binder)
chain: MIPGGLSEAKPATPEIQEIVDKVKPQLEEKTGETYGKLEAVQYKTQVVKYYAIFDYKGTNYYIKVRAGDNKYMHLKVFKSLFKEKVRNSIEDLVLTGYQVDKNKDDELTGF
notes: His-tagged
Consider B2, for which the binding result was “binds”.

B3: Clone 81 (designed binder)
chain: MIPGGLSEAKPATPEIQEIVDKVKPQLEEKTGETYGKLEAVQYKTQVVKAYVIWSYKGTNYYIKVRAGDNKYMHLKVFKSLFYGEPRGKGEDLVLTGYQVDKNKDDELTGF
notes: His-tagged
Turning to B3, the binding result was “binds”.

B4: Clone 181 (designed binder)
chain: MIPGGLSEAKPATPEIQEIVDKVKPQLEEKTGETYGKLEAVQYKTQVVKAYKVFNYIGTNYYIKVRAGDNKYMHLKVFKSLFKWDNGISDEDLVLTGYQVDKNKDDELTGF
notes: His-tagged
Take B4: the binding result is recorded as “binds”.

B5: Clone 217 (designed binder)
chain: MIPGGLSEAKPATPEIQEIVDKVKPQLEEKTGETYGKLEAVQYKTQVVKKYVIFFYEGTNYYIKVRAGDNKYMHLKVFKSLFVNKGGSDDEDLVLTGYQVDKNKDDELTGF
notes: His-tagged
For the molecule B5, the binding result is reported as “binds”.

B6: Clone 186 (designed binder)
chain: MIPGGLSEAKPATPEIQEIVDKVKPQLEEKTGETYGKLEAVQYKTQVVYDNVKEYPWGTNYYIKVRAGDNKYMHLKVFKSLKWYDPTIRPEDLVLTGYQVDKNKDDELTGF
notes: His-tagged
B6: the binding result is “binds”.

B7: Clone 199 (designed binder)
chain: MIPGGLSEAKPATPEIQEIVDKVKPQLEEKTGETYGKLEAVQYKTQVVRDHELVNQWGTNYYIKVRAGDNKYMHLKVFKSLFGQPVQGNTEDLVLTGYQVDKNKDDELTGF
notes: His-tagged
Consider B7, for which the binding result is “binds”.

B8: Clone 185 (designed binder)
chain: MIPGGLSEAKPATPEIQEIVDKVKPQLEEKTGETYGKLEAVQYKTQVVVVLFASGWEGTNYYIKVRAGDNKYMHLKVFKSLIQWRDHKPREDLVLTGYQVDKNKDDELTGF
notes: His-tagged
In the case of B8, the binding result is given as “binds”.

B9: Clone 195 (designed binder)
chain: MIPGGLSEAKPATPEIQEIVDKVKPQLEEKTGETYGKLEAVQYKTQVVVGVGRDFPKGTNYYIKVRAGDNKYMHLKVFKSLYIHYLKVNEEDLVLTGYQVDKNKDDELTGF
notes: His-tagged
As to B9, the binding result was “binds”.

B10: Clone 20 (designed binder)
chain: MIPGGLSEAKPATPEIQEIVDKVKPQLEEKTGETYGKLEAVQYKTQVVANSKWHYAFGTNYYIKVRAGDNKYMHLKVFKSLDNAIYRGPTEDLVLTGYQVDKNKDDELTGF
notes: His-tagged
Regarding B10, the binding result is “binds”.

B11: Clone 18 (designed binder)
chain: MIPGGLSEAKPATPEIQEIVDKVKPQLEEKTGETYGKLEAVQYKTQVVEAHQDLHFWGTNYYIKVRAGDNKYMHLKVFKSLLTEHNKKHQERHLDHEDLVLTGYQVDKNKDDELTGF
notes: His-tagged
B11: the binding result is “binds”.

B12: Clone 193 (designed binder)
chain: MIPGGLSEAKPATPEIQEIVDKVKPQLEEKTGETYGKLEAVQYKTQVVLRHPVQDDDGTNYYIKVRAGDNKYMHLKVFKSLAGVNRWKWIEDLVLTGYQVDKNKDDELTGF
notes: His-tagged
As for B12, the binding result is listed as “binds”.

B13: Clone 191 (designed binder)
chain: MIPGGLSEAKPATPEIQEIVDKVKPQLEEKTGETYGKLEAVQYKTQVVLRYHFPEFHGTNYYIKVRAGDNKYMHLKVFKSLNHLAIHELPEDLVLTGYQVDKNKDDELTGF
notes: His-tagged
For B13, the binding result is given as “binds”.

B14: Clone 187 (designed binder)
chain: MIPGGLSEAKPATPEIQEIVDKVKPQLEEKTGETYGKLEAVQYKTQVVIQDWTVGWEGTNYYIKVRAGDNKYMHLKVFKSLRIGRSTNLWEDLVLTGYQVDKNKDDELTGF
notes: His-tagged
On to B14, for which the binding result is “binds”.

B15: Clone 254 (designed binder)
chain: MIPGGLSEAKPATPEIQEIVDKVKPQLEEKTGETYGKLEAVQYKTQVVISDVSVGWEGTNYYIKVRAGDNKYMHLKVFKSLRSGPAHVRREDLVLTGYQVDKNKDDELTGF
notes: His-tagged
On to B15, for which the binding result is “binds”.

B16: Clone 2 (designed binder)
chain: MIPGGLSEAKPATPEIQEIVDKVKPQLEEKTGETYGKLEAVQYKTQVVASFIDIGWHGTNYYIKVRAGDNKYMHLKVFKSLREGKHGRNKEDLVLTGYQVDKNKDDELTGF
notes: His-tagged
With B16, the binding result is reported as “binds”.

B17: Clone 36 (designed binder)
chain: MIPGGLSEAKPATPEIQEIVDKVKPQLEEKTGETYGKLEAVQYKTQVVWSFAQVGWHGTNYYIKVRAGDNKYMHLKVFKSLRRFEHLPFYEDLVLTGYQVDKNKDDELTGF
notes: His-tagged
As to B17, the binding result is “binds”.

B18: Clone 192 (designed binder)
chain: MIPGGLSEAKPATPEIQEIVDKVKPQLEEKTGETYGKLEAVQYKTQVVTENNSWWPIGTNYYIKVRAGDNKYMHLKVFKSLNWFSDEAPYEDLVLTGYQVDKNKDDELTGF
notes: His-tagged
With B18, the binding result is given as “binds”.

B19: Clone 180 (designed binder)
chain: MIPGGLSEAKPATPEIQEIVDKVKPQLEEKTGETYGKLEAVQYKTQVVLQGSRLPIEGTNYYIKVRAGDNKYMHLKVFKSLGWHNVTLPPEDLVLTGYQVDKNKDDELTGF
notes: His-tagged
On to B19, for which the binding result was “binds”.

B20: Clone 183 (designed binder)
chain: MIPGGLSEAKPATPEIQEIVDKVKPQLEEKTGETYGKLEAVQYKTQVVRQTDSVKWWGTNYYIKVRAGDNKYMHLKVFKSLWYNRYYNDFEDLVLTGYQVDKNKDDELTGF
notes: His-tagged
Turning to B20, the binding result is recorded as “binds”.

B21: Clone 198 (designed binder)
chain: MIPGGLSEAKPATPEIQEIVDKVKPQLEEKTGETYGKLEAVQYKTQVVSSPLHWELWHWSGTNYYIKVRAGDNKYMHLKVFKSLELNNKDQNDEDLVLTGYQVDKNKDDELTGF
notes: His-tagged
Take B21: the binding result is given as “binds”.

B22: Clone 188 (designed binder)
chain: MIPGGLSEAKPATPEIQEIVDKVKPQLEEKTGETYGKLEAVQYKTQVVPQENAPWVLGTNYYIKVRAGDNKYMHLKVFKSLNWDQPDTVLEDLVLTGYQVDKNKDDELTGF
notes: His-tagged
Turning to B22, the binding result is “binds”.

B23: Clone 197 (designed binder)
chain: MIPGGLSEAKPATPEIQEIVDKVKPQLEEKTGETYGKLEAVQYKTQVVWKPQDSVNWGTNYYIKVRAGDNKYMHLKVFKSLDWDGAAGDAEDLVLTGYQVDKNKDDELTGF
notes: His-tagged
Take B23: the binding result is listed as “binds”.

B24: Clone 178 (designed binder)
chain: MIPGGLSEAKPATPEIQEIVDKVKPQLEEKTGETYGKLEAVQYKTQVVDHLPHAKYWGTNYYIKVRAGDNKYMHLKVFKSLWYQPRWKVEEDLVLTGYQVDKNKDDELTGF
notes: His-tagged
Turning to B24, the binding result is listed as “binds”.
